We go through one protein from publication PMC2972665 (Biochemistry, 2010).

The data set concerns the molecule itself. Put plainly: AUC.

B1: Wild type SgrAI (enzyme, Streptomyces griseus, UniProt Q9F6L0 1-339, looked up)
chain: MPFTYSIEATRNLATTERCIQDIRNAPVRNRSTQFQLAQQNMLAYTFGEVIPGFASAGINGMNYRDVIGRPVENAVTEGTHFFRDDFRVDSNAKAKVAGDIFEIVSSAVMWNCAARWNSLMVGEGWRSQPRYSRPTLSPSPRRQVAVLNLPRSFDWVSLLVPESQEVIEEFRAGLRKDGLGLPTSTPDLAVVVLPEEFQNDEMWREEIAGLTRPNQILLSGAYQRLQGRVQPGEISLAVAFKRSLRSDRLYQPLYEANVMQLLLEGKLGAPKVEFEVHTLAPEGTNAFVTYEAASLYGLAEGRSAVHRAIRELYVPPTAADLARRFFAFLNERMELVNG
Regarding B1, the “stoichiometry N” value was 2 SgrAI chains in the DNA bound dimer.
